Data published in doi:10.1101/2020.01.16.909523 (bioRxiv, 2020).

Target: PE5mt-PPE4mt heterodimer (His6 tag cleaved) (Mycobacterium tuberculosis, UniProt L7N695 1-102; P9WI43 1-180)
Assay: SEC-MALS

Chain of PE5mt-PPE4mt heterodimer (His6 tag cleaved) (L7N695 whole entry, chain 1 of 2): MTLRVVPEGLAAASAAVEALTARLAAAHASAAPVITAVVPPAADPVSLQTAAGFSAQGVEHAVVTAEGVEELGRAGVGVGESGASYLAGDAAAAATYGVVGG
Chain of PE5mt-PPE4mt heterodimer (His6 tag cleaved) (P9WI43 1-180, chain 2 of 2): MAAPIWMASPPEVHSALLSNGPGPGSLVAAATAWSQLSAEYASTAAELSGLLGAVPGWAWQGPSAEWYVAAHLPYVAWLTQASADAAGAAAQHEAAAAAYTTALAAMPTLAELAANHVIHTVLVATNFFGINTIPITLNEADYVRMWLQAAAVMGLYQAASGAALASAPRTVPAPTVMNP

B1: EspG3mm (natural protein)
chain: MESMPNAVELTVENAWFIAEMVGAGTFPWVLAITTPYSDEAQRSAFFARQRDELTQLGLLSSDGVVNPAVAEWIKVVCFPERWLDLRYVGPGTGNGGEDLLRGIVAQSAGIMGKAGKAHPSFNTVVALRNAQLVTFTAMDIDDPRALVPVLGVGLSARPPARFEEFSMPMRVGARADERLRSGESLDEVLDYLGIPVSARPVVQAVFSGPRSYVEIVAGCNRDGEHTTTDVGLSIVDTTAGRVLVSPSRAFDGEWVSTFSAGTPFATAVAIDQLIANLPDGQWFPGQRLSRDFSSQPS
- stoichiometry N: 1
